Measurements from the RNAGym collection of RNA variant scans (doi:10.1073/pnas.2313332121).

B1: TPR t1 (parent)
chain: GACCAAUCUGCCCUCAGAGCUCGAGAACAUCUUCGGAUGCAGAGGAGGCAGGCUUCGGUGGCGCGAUAGCGCCAACGUCCUCAACCUCCAAUGCAUCCCACCACAUGAUGAUGCCUGAAGAGCCUUGGUUUUUUG

Variants of: B1
Experiment: polymerase ribozyme fitness, log enrichment relative to wild type (log ratio); higher = more active; in vitro selection for triplet polymerase activity
In short: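 Only genotypes with ≥10 input reads and ≥1 read per output were kept after Illumina sequencing of input and output libraries. These libraries were PCR-built, transcribed mutants of each subunit of a heterodimeric triplet polymerase ribozyme, each put through one triplicate in vitro selection round with frozen incubation at −7 °C, gel excision of extended constructs, streptavidin-bead capture and RT-PCR. Fitness is a logarithmic ratio of genotype enrichment to wild-type enrichment, from inverse-variance-weighted replicate averages, with the logarithm in base 2.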

Compared with G10C A18U, G10A U59C A66C A68G U106G A121U is lower in “polymerase ribozyme fitness (log ratio)” value: -3.34 for the first, -4.4 for the second.

First: U9G G10A U14G A46G G48A A66G
Second: G10U A18U C40A C56G
The “polymerase ribozyme fitness (log ratio)” value of the first is higher: -2.94 for the first, -4.94 for the second.

First: G10U C20U U32A A84U C104A
Second: G10A C72U G113A
The “polymerase ribozyme fitness (log ratio)” value of the first is lower: -3.8 for the first, -1.32 for the second.

First: U9C U96A
Second: G10U C11G A29C C53A A74U
The “polymerase ribozyme fitness (log ratio)” value of the first is higher: 0.079 for the first, -3.94 for the second.

First: U9G G45A C49U C72U G93A
Second: U9G C56G G61A
The “polymerase ribozyme fitness (log ratio)” value of the first is higher: -1.56 for the first, -2.17 for the second.

First: G10C G45U G47U C73A G117A A119U
Second: G10U A16C G44C C70U A111C U125G
The “polymerase ribozyme fitness (log ratio)” value of the first is higher: -5.46 for the first, -7.14 for the second.

Going from U9G G48U to U9C A43U, the “polymerase ribozyme fitness (log ratio)” value rises from -1.27 to -0.741.

Going from G10U A26U G39C C89U to U9C C22U A46C A103G G113C, the “polymerase ribozyme fitness (log ratio)” value falls from -5.19 to -7.29.

Going from G10C C11U C13A A37U C70U to G10C A103U C123U, the “polymerase ribozyme fitness (log ratio)” value falls from -0.31 to -5.06.

G10U C53A G77C U78A G107C A121U and U9G G42A A105U are within 0.2 log units of each other in “polymerase ribozyme fitness (log ratio)” value: -4.29 for the first, -4.37 for the second.

First: U9G G10C C11A C89U A103U U109A
Second: U9G C12G G36A C101G
The “polymerase ribozyme fitness (log ratio)” value of the first is lower: -5.83 for the first, -1.32 for the second.

Going from U9C G60U C99A to G10A C56U U96C, the “polymerase ribozyme fitness (log ratio)” value rises from -6.14 to -0.627.

Compared with G10U C20G C99U C115U, U9G G39A C56U is higher in “polymerase ribozyme fitness (log ratio)” value: -8.2 for the first, 0.0691 for the second.

Going from U9A G39C C99U to U9C A27C C40G C72A, the “polymerase ribozyme fitness (log ratio)” value falls from -2.83 to -3.22.

First: U9C G25A
Second: G10C G36C G45C U59G C62U C80U
The “polymerase ribozyme fitness (log ratio)” value of the first is lower: -6.01 for the first, -3.25 for the second.

Compared with G10A C11G C70G, U9G G60U C62U is higher in “polymerase ribozyme fitness (log ratio)” value: -2.13 for the first, -1.11 for the second.

Going from G10A C13U U30C C31A G42U C123A U126G to U9C C11U G17C A41U, the “polymerase ribozyme fitness (log ratio)” value rises from -5.09 to -4.76.

Going from U9A G39A C56A G60A to U9C C114A U129C, the “polymerase ribozyme fitness (log ratio)” value falls from 0.000466 to -1.92.

Going from U9C G10A A37U to U9C G60U U109G C114G, the “polymerase ribozyme fitness (log ratio)” value falls from -0.108 to -3.95.

First: G10C U38C C40U C64U C101A
Second: U9G C31U
The “polymerase ribozyme fitness (log ratio)” value of the first is higher: -1.8 for the first, -4.02 for the second.

First: G10A A90C A121C
Second: G10U C15U A91C U125A
The “polymerase ribozyme fitness (log ratio)” value of the first is higher: 0.254 for the first, -3.89 for the second.

Going from U9G A50U A74C G113C to G10C C89A, the “polymerase ribozyme fitness (log ratio)” value rises from -3.6 to -2.73.

Compared with G10A C12U G19U C85U C123U, G10A U92A is lower in “polymerase ribozyme fitness (log ratio)” value: -1.68 for the first, -2.86 for the second.

Going from G10U A46C A74U G127C to U9C C72U U78C A83U A90G A121G, the “polymerase ribozyme fitness (log ratio)” value rises from -2.03 to 2.19.

Compared with G10C U112A, G10C G42U G48A is lower in “polymerase ribozyme fitness (log ratio)” value: 0.23 for the first, -2.39 for the second.

Going from G10C A83U U106G to U9G G77A U78C C98A G113C, the “polymerase ribozyme fitness (log ratio)” value falls from -3.53 to -5.07.

Going from U9C C11U G61A C88G to G10C C49G C64U A83G U125A, the “polymerase ribozyme fitness (log ratio)” value falls from -0.498 to -3.57.

Compared with U9C C13U C53A U87C A100U, U9C C56U A83U G117A is higher in “polymerase ribozyme fitness (log ratio)” value: -0.242 for the first, 0.635 for the second.

Going from U9G G57A C79A to G10C C20U G48C C114A C123U, the “polymerase ribozyme fitness (log ratio)” value falls from -1.03 to -3.33.

First: G10A A90C G93C A111U
Second: U9G G42C G45A C85G
The “polymerase ribozyme fitness (log ratio)” value of the first is lower: -5.12 for the first, -4.6 for the second.

U9G A41U U54A U78C and G10A C73U U116C are the same in “polymerase ribozyme fitness (log ratio)” value: -1.59 for the first, -1.59 for the second.

Going from U9G G48U C88A to G10A G45A A95C C102A, the “polymerase ribozyme fitness (log ratio)” value falls from -1.04 to -2.76.

Compared with U9G G61U G117A, G10U A46C is lower in “polymerase ribozyme fitness (log ratio)” value: 1.58 for the first, -0.286 for the second.

Going from G10C G69A to U9G A18C C56G G120A U130A, the “polymerase ribozyme fitness (log ratio)” value rises from -4.78 to -1.19.

Compared with G10U C49U G57A U106C, G10A C56G G117A is lower in “polymerase ribozyme fitness (log ratio)” value: -2.46 for the first, -3.95 for the second.

Going from G10C A26C G120C G122A C123G G128A to G10A G36C A50G U92G, the “polymerase ribozyme fitness (log ratio)” value rises from -5.85 to -3.51.

Compared with G10A C53A G71C C104U G110A C114G, U9G C34G is higher in “polymerase ribozyme fitness (log ratio)” value: -6.44 for the first, -4.16 for the second.

First: U9G C34A
Second: U9G C34U
The “polymerase ribozyme fitness (log ratio)” value of the first is higher: -1.59 for the first, -3.92 for the second.

G10A G17U C115A G135U and G10U C56A U112A are within 0.2 log units of each other in “polymerase ribozyme fitness (log ratio)” value: 0.196 for the first, 0.0795 for the second.

Going from G10A G61U G122A to U9G G69C A105U U112G, the “polymerase ribozyme fitness (log ratio)” value falls from 0.738 to -4.11.

Going from G10C C34A to U9A G47U C97G C99U G120U U130C, the “polymerase ribozyme fitness (log ratio)” value falls from -3.12 to -5.08.

First: G10C G71A G113C
Second: U9G A46C G61A U87A G93C C115A U116C A119C
The “polymerase ribozyme fitness (log ratio)” value of the first is lower: -4.81 for the first, -3.51 for the second.
